Where a chain is given by its changes, count along the chain named. Names may count otherwise. Read-outs that look alike come from different tables or passages of the source.
Assays:
Experiment in all cases: SPR
[1] = target: T1, TRAIL-R2-Fc M152A/R154A/K155A (human, UniProt O14763 58-184)
T1 chain: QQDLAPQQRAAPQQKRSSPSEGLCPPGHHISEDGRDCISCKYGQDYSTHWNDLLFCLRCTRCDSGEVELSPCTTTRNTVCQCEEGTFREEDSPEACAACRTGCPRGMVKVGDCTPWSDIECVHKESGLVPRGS

UL141 [2] = target: UL141
UL141 [3] = target: UL141; remark: listed apart in the source
UL141 [4] = target: UL141; remark: listed apart in the source
UL141 [5] = target: UL141; remark: listed apart in the source

B1: TRAIL (TNFSF10) ectodomain (ligand)
chain: TNELKQMQDKYSKSGIACFLKEDDSYWDPNDEESMNSPCWQVKWQLRQLVRKMILRTSEETISTVQEKQQNISPLVRERGPQRVAAHITGTRGRSNTLSSPNSKNEKALGRKINSWESSRSGHSFLSNLHLRNGELVIHEKGFYYIYSQTYFRFQEEIKENTKNDKQMVQYIYKYTSYPDPILLMKSARNSCWSKDAEYGLYSIYQGGIFELKENDRIFVSVTNEHLIDMDHEASFFGAFLVG
B1 showed a Kd [1] of 7 nM.

B2: TRAIL-R2-Fc F112A (Fc fusion)
chain: T1 chain with F55A, A95M, A97R, A98K
With B2 the Kd (UL141 [2]) was 630 nM.

B3: TRAIL-R2-Fc R154A (Fc fusion)
chain: T1 chain with A95M, A98K
B3 gave a Kd (UL141 [3]) of 6 nM.

B4: TRAIL-R2-Fc L110A/L114A (Fc fusion)
chain: T1 chain with L53A, L57A, A95M, A97R, A98K
Work on B4 yielded a Kd (UL141 [2]) of 43 nM.

B5: TRAIL-R2-Fc E78A/D109A (Fc fusion)
chain: T1 chain with E21A, D52A, A95M, A97R, A98K
B5 was tested, and the Kd (UL141 [4]) was 60 nM.

B6: TRAIL-R2-Fc M152A (Fc fusion)
chain: T1 chain with A97R, A98K
B6 showed a Kd (UL141 [3]) of 7 nM.

B7: TRAIL-R2-Fc (human TRAIL-R2 aa 58-184, thrombin site, human IgG1 Fc), wild type (Fc fusion)
chain: T1 chain with A95M, A97R, A98K
Work on B7 yielded a Kd (UL141 [2]) of 6 nM and a Kd (UL141 [5]) of 5.96 nM.

B8: TRAIL-R2-Fc K155A (Fc fusion)
chain: T1 chain with A95M, A97R
B8 gave a Kd (UL141 [3]) of 8 nM.

B9: TRAIL-R2-Fc V167A (Fc fusion)
chain: T1 chain with A95M, A97R, A98K, V110A
B9 was tested, and the Kd (UL141 [2]) was 15 nM.

B10: TRAIL-R2-Fc D148A (Fc fusion)
chain: T1 chain with D91A, A95M, A97R, A98K
In the case of B10, the Kd (UL141 [2]) is reported as 55 nM.

B11: TRAIL-R2-Fc P150A (Fc fusion)
chain: T1 chain with P93A, A95M, A97R, A98K
B11 showed a Kd (UL141 [2]) of 8 nM.
